Legend:
[1] = test system: SC BxPC3 tumors; assay: Protocol 185: biodistribution of 212Pb-DOTAM after CEA-split-DOTAM-VH/VL targeting T84.66 or CH1A1A; type: in vivo, SCID mice; settings: 6 hours after injection
Protocol: (§1) The in vivo distribution of ^212Pb-DOTAM was assessed 6 hours after the radioactive injection.
Solid xenografts were established in each SCID mouse on study day 0 by SC injection of 5×10^6 cells (passage 27) in RPMI/Matrigel into the right flank. Twenty-two days after tumor cell injection, mice were sorted into experimental groups with an average tumor volume of 224 mm^3. The ^212Pb-DOTAM was injected on day 28 after inoculation, at which point the average tumor volume had reached 385 mm^3.
All mice were sacrificed and necropsied 6 hours after injection of ^212Pb-DOTAM, and the following organs and tissues harvested for measurement of radioactive content: blood, skin, spleen, pancreas, kidneys, liver, muscle, tail, and tumor. Collected tumors were split in two pieces: one was measured for radioactive content, and the other put in a cryomold containing Tissue-Tek® optimum cutting temperature (OCT) embedding medium, and put on dry ice for rapid freezing. Frozen samples in OCT were maintained at −80° C. before cryosectioning, immunofluorescence staining, and analysis using a Zeiss Axio Scope.A1 modular microscope.

[2] = test system: SC BxPC3 tumors; assay: Protocol 189: biodistribution of 212Pb-DOTAM after bi-paratopic (T84.66 and CH1A1A) CEA-split-DOTAM-VH/VL pairs; type: in vivo, SCID mice; settings: 6 hours after injection
Protocol: This bi-paratopic combination precludes formation of the full Pb-DOTAM binder on soluble CEA that only expresses one of the two epitopes (e.g. T84.66), thereby mitigating potential adverse effects thereof, such as increased circulating radioactivity and associated radiation-induced toxicity, and decreased efficacy from competition with off-tumor targets.
as §1
Solid xenografts were established in each SCID mouse on study day 0 by SC injection of 5×10^6 cells (passage 31) in RPMI/Matrigel into the right flank. Fourteen days after tumor cell injection, mice were sorted into experimental groups with an average tumor volume of 343 mm^3. The ^212Pb-DOTAM was injected on day 22 after inoculation; the average tumor volume had reached 557 mm^3 on day 21.
All mice were sacrificed and necropsied 6 hours after injection of ^212Pb-DOTAM, and the following organs and tissues harvested for measurement of radioactive content: blood, skin, spleen, pancreas, kidneys, liver, muscle, tail, and tumor.

B1: CH1A1A: CEA-split-DOTAM-VH/VL pair targeting CH1A1A: P1AF0171 (VH-AST) plus P1AD8592 (VL) (antibody, V domains shown)
VH: QVQLVQSGAEVKKPGASVKVSCKASGYTFTEFGMNWVRQAPGQGLEWMGWINTKTGEATYVEEFKGRVTFTTDTSTSTAYMELRSLRSDDTAVYYCARWDFAYYVEAMDYWGQGTTVTVSS
VL: DIQMTQSPSSLSASVGDRVTITCKASAAVGTYVAWYQQKPGKAPKLLIYSASYRKRGVPSRFSGSGSGTDFTLTISSLQPEDFATYYCHQYYTYPLFTFGQGTKLEIK
modifications: split DOTAM-binding domains and constant regions lack entries
- tumor accumulation of ^212Pb [1]: 40 % ID/g
- tumor accumulation of ^212Pb [2]: 37 % ID/g

Reference: patent publication US20240173442A1, “COMBINATION THERAPY” (Hoffmann-La Roche Inc., priority 2021, published 2024)
